The target in this experiment is T1, human MLH1 protein (hMLH1) (human, UniProt P40692 1-756, limits assumed).
T1 construct: Translated in vitro for the MBP-hPMS1 column assay
T1 sequence: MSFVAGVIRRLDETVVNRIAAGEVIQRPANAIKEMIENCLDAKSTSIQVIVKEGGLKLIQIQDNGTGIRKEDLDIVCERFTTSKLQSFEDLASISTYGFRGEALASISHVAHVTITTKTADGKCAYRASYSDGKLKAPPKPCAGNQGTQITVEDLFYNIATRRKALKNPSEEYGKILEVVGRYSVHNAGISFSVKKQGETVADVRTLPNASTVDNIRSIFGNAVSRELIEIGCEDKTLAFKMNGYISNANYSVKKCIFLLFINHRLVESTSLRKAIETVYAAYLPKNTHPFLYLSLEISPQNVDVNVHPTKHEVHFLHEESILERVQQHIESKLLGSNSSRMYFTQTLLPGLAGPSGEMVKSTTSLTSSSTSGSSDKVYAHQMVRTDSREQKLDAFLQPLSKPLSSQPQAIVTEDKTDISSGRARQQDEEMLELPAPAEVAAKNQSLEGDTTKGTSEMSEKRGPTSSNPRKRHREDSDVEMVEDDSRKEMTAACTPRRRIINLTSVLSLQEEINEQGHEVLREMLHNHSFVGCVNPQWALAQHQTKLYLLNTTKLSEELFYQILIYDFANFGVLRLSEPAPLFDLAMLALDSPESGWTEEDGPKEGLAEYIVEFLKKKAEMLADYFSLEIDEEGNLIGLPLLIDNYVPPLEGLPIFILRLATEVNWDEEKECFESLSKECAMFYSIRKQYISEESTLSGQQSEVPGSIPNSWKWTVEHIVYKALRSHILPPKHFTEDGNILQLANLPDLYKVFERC
The experiment is described as follows: yeast two-hybrid system.

B1: human PMS1 protein (hPMS1) (other)
chain: MERAESSSTEPAKAIKPIDRKSVHQICSGQVVLSLSTAVKELVENSLDAGATNIDLKLKDYGVDLIEVSDNGCGVEEENFEGLTLKHHTSKIQEFADLTQVETFGFRGEALSSLCALSDVTISTCHASAKVGTRLMFDHNGKIIQKTPYPRPRGTTVSVQQLFSTLPVRHKEFQRNIKKEYAKMVQVLHAYCIISAGIRVSCTNQLGQGKRQPVVCIGGSPSIKENIGSVFGQKQLQSLIPFVQLPPSDSVCEEYGLSCSDALHNLFYISGFISQCTHGVGRSSTDRQFFFINRRPCDPAKVCRLVNEVYHMYNRHQYPFVVLNISVDSECVDINVTPDKRQILLQEEKLLLAVLKTSLIGMFDSDVNKLNVSQQPLLDVEGNLIKMHAADLEKPMVEHQDQSPSLRIGEEKKDVSISRLREAFSLRHTTENKPHSPKTPEPRRSPLGQKRGMLSSSTSGAISDKGVLRSQKEAVSSSHGPSDPTDRAEVEKDSGHGSTSVDSEGFSIPDTGSHCSSEYAASSPGDRGSQEHVDSQEKAPETDDSFSDVDCHSNQEDTGCKFRVLPQPINLATPNTKRFKKEEILSSSDICQKLVNTQDMSASQVDVAVKINKKVVPLDFSMSSLAKRIKQLHHEAQQSEGEQNYRKFRAKICPGENQAAEDELRKEISKTMFAEMEIIGQFNLGFIITKLNEDIFIVDQHATDEKYNFEMLQQHTVLQGQRLIAPQTLNLTAVNEAVLIENLEIFRKNGFDFVIDENAPVTERAKLISLPTSKNWTFGPQDVDELIFMLSDSPGVMCRPSRVKQMFASRACRKSVMIGTALNTSEMKKLITHMGEMGHPWNCPHGRPTMRHIANLGVISQN
notes: Synthesized in vitro for the MBP column assay
As for B1, the binding result is reported as “binds”.
